# B1: Zinc transporter 6 (Homo sapiens), Q6NXT4 (parent)
# chain: MGTIHLFRKPQRSFFGKLLREFRLVAADRRSWKILLFGVINLICTGFLLMWCSSTNSIALTAYTYLTIFDLFSLMTCLISYWVTLRKPSPVYSFGFERLEVLAVFASTVLAQLGALFILKESAERFLEQPEIHTGRLLVGTFVALCFNLFTMLSIRNKPFAYVSEAASTSWLQEHVADLSRSLCGIIPGLSSIFLPRMNPFVLIDLAGAFALCITYMLIEINNYFAVDTASAIAIALMTFGTMYPMSVYSGKVLLQTTPPHVIGQLDKLIREVSTLDGVLEVRNEHFWTLGFGSLAGSVHVRIRRDANEQMVLAHVTNRLYTLVSTLTVQIFKDDWIRPALLSGPVAANVLNFSDHHVIPMPLLKGTDDLNPVTSTPAKPSSPPPEFSFNTPGKNVNPVILLNTQTRPYGFGLNHGHTPYSSMLNQGLGVPGIGATQGLRTGFTNIPSRYGTNNRIGQPRP
# Variants of: B1
# Settings: with znt5_human SLC30A5, Q8TAD4
# znt5_human SLC30A5, Q8TAD4, sequence (Q8TAD4 whole entry): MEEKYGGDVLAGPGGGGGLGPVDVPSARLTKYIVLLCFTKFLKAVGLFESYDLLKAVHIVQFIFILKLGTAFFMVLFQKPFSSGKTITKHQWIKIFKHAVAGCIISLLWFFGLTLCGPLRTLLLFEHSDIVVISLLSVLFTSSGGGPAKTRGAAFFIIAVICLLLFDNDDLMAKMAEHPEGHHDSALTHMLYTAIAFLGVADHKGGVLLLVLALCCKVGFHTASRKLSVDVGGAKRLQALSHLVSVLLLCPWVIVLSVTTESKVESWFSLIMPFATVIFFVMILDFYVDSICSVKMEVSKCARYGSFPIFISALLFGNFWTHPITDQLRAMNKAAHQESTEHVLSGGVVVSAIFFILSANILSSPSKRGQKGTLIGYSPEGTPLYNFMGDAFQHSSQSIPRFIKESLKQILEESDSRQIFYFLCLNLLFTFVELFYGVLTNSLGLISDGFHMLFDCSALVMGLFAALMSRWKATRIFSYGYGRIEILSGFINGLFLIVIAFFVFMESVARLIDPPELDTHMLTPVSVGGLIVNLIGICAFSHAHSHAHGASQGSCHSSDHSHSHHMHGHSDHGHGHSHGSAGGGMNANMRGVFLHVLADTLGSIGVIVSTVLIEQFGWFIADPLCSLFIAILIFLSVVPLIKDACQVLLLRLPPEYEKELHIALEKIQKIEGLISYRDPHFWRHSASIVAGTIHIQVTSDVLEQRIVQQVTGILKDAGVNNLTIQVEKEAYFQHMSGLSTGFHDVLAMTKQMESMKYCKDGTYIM
row,effect of a mutation on the interaction,Variant
1,with no effect,L66H;F201H
2,with no effect,D70A;D205A
